Laboratory results reported in patent publication US20240025965A1 (UNIVERSITEIT TWENTE, published 2024).
Where no end group is shown, it is not given here. membrane = cellular membrane (peptide-display support, peptide attached at its C-terminus via a stable linker); glass slide = glass slide (microarray support, peptide conjugated at its N-terminus via a PEG linker); stable linker = not defined here; PEG linker = not defined here; linker = not defined here; PEG = not defined here

B1: RYYRITA (peptide)
peptide: {glass slide-PEG}-RYYRITA
modifications: reading uncertain
notes: also called AV3 with Y7 replaced by alanine
B2: AYYRITY (peptide)
peptide: {glass slide-PEG}-AYYRITY
modifications: reading uncertain
notes: also called AV3 with R1 replaced by alanine
B3: RYYAITY (peptide)
peptide: {glass slide-PEG}-RYYAITY
modifications: reading uncertain
notes: also called AV3 with R4 replaced by alanine
B4: RAYRITY (peptide)
peptide: {glass slide-PEG}-RAYRITY
modifications: reading uncertain
notes: also called AV3 with Y2 replaced by alanine
B5: RYYRATY (peptide)
peptide: {glass slide-PEG}-RYYRATY
modifications: reading uncertain
notes: also called AV3 with I5 replaced by alanine
B6: RWFNS (peptide)
peptide: {glass slide-PEG}-RWFNS
modifications: reading uncertain
notes: chain-length variant of AXI-I (positions 8-12); fixed on the array by its N-terminus through a PEG linker
B7: SGATEWLRWFNS (peptide)
peptide: {glass slide-PEG}-SGATEWLRWFNS
modifications: reading uncertain
notes: alanine-scan variant of AXI-I; fixed on the array by its N-terminus through a PEG linker; also called AXI-I with L3 replaced by alanine
B8: SGLTEW (peptide)
peptide: {glass slide-PEG linker}-SGLTEW
modifications: reading uncertain
notes: chain-length variant of AXI-I (positions 1-6); fixed on the array by its N-terminus through a PEG linker
B9: SGLTE (peptide)
peptide: {glass slide-PEG}-SGLTE
modifications: reading uncertain
notes: chain-length variant of AXI-I (positions 1-5); fixed on the array by its N-terminus through a PEG linker
B10: SGLTEWLR (peptide)
peptide: {glass slide-PEG linker}-SGLTEWLR
modifications: reading uncertain
notes: chain-length variant of AXI-I (positions 1-8); fixed on the array by its N-terminus through a PEG linker

Biological target: T1, α5β1 human recombinant protein (human, UniProt P08648 42-995; P05556 21-728)
T1 construct: Bought from R&D Systems; also called α5β1 receptor; integrin α5β1
Assay: peptide microarray incubated with α5β1, anti-α5 detection
Protocol: (§1) Peptide microarray was prepared by conjugating peptides at their N-terminal to a glass slide using a PEG linker. […] For the binding studies, the peptide array was blocked with 3% BSA in TBST for 2 hours. Then the array slide was washed 5 times in TB ST and subsequently incubated with the target receptor (α5β1, 10 μg/ml dissolved in PBS) for 1 hour at 37° C. The slides were washed with TBST and then incubated with primary antibody (1 μg/ml) against ITGA5 for 1 hour at 37° C. Then slides were washed and incubated with fluorescent dye labeled secondary antibodies for 30 minutes. The slides were washed with TBST and water and then dried and scanned with a microarray scanner to detect binding of the peptides. The enlightened spots were analyzed using ImageJ software. To determine the unspecific binding, a peptide array was incubated with only primary and secondary antibodies without the receptor incubation step. Then, the signal of unspecific binding was subtracted from the total binding to calculate specific binding.
To find out the amino acids responsible for the peptide binding and the most efficient binding peptides, peptide microarrays were developed with alanine replacement and shorter peptides. In addition, a peptide having the sequence […] (SEQ ID NO:11) (AV3-Cys) was developed. For AV3 (RYYRITY (SEQ ID NO:8)), the peptide microarray was incubated with […] receptor, which was captured by anti-α5 and then fluorescent dye labeled secondary antibody. […] Replacement of T6 induced unspecific binding of the peptide to the incubating antibodies (FIG. 13).

T1 sequence (P08648 42-995 limits assumed, chain 1 of 2): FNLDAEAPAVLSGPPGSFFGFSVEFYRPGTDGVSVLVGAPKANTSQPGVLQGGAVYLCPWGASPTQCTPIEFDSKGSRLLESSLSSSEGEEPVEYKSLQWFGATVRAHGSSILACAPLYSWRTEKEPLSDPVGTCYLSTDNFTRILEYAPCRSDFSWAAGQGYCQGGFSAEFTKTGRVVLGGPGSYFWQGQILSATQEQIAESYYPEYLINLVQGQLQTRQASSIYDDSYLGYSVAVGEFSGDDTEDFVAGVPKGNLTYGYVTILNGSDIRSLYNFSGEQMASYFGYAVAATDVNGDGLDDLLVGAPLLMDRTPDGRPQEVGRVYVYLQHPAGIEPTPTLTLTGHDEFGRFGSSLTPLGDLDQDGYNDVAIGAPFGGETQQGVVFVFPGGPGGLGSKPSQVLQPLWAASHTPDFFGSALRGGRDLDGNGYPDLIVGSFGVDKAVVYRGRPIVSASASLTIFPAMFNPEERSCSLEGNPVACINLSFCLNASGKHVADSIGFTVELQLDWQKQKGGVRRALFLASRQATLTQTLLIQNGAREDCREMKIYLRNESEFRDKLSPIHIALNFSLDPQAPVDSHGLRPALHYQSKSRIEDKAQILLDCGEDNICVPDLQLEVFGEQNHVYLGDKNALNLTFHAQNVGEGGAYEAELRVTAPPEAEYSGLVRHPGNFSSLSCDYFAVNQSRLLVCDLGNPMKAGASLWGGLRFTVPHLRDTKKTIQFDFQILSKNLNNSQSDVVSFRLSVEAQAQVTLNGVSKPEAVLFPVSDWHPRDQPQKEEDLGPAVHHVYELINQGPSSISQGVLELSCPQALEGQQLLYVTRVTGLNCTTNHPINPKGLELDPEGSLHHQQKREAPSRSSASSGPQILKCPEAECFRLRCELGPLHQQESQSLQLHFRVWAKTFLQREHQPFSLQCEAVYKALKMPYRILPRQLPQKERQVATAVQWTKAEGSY
T1 sequence (P05556 21-728 limits assumed, chain 2 of 2): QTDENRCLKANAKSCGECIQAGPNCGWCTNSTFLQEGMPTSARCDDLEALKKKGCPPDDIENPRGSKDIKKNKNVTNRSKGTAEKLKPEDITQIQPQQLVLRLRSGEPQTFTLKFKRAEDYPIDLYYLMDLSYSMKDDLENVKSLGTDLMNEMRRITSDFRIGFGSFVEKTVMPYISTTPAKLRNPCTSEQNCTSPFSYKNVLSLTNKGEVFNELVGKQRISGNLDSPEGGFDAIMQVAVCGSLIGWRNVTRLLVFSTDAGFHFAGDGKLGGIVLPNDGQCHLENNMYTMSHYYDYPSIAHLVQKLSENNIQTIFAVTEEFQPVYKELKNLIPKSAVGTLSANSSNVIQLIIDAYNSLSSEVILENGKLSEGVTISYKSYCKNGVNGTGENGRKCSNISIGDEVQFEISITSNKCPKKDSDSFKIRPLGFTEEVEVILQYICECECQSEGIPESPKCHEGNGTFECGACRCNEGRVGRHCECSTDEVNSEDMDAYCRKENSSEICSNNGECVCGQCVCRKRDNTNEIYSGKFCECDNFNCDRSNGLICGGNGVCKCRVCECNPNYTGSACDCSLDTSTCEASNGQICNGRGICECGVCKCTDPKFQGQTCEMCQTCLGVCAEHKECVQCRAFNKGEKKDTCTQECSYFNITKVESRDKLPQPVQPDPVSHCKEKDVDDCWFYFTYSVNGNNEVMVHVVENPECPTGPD

| binding result | Binder |
| --- | --- |
| no binding | {glass slide-PEG}-RYARITY (reading uncertain) [AV3 with Y3 replaced by alanine] |
| binds | B1 |
| binds | B2 |
| binds | B3 |
| binds | B4 |
| binds | B5 |

Biological target: T2, rhIntegrin α11β1 (human, UniProt Q9UKX5 23-1141; P05556 21-728, limits assumed)
T2 construct: Bought from R&D Systems; also called α11β1 receptor; ITGA11 receptor
Assay: peptide microarray: peptide fixed by its N-terminus through a PEG linker, incubated with α11β1 receptor (10 µg/ml), anti-ITGA11 antibody and fluorescent secondary antibody, signal of the antibodies alone subtracted
Protocol: as §1, with “(α11β1,” for “(α5β1,”, “ITGA11” for “ITGA5”

T2 sequence (Q9UKX5 23-1141 limits assumed, chain 1 of 2): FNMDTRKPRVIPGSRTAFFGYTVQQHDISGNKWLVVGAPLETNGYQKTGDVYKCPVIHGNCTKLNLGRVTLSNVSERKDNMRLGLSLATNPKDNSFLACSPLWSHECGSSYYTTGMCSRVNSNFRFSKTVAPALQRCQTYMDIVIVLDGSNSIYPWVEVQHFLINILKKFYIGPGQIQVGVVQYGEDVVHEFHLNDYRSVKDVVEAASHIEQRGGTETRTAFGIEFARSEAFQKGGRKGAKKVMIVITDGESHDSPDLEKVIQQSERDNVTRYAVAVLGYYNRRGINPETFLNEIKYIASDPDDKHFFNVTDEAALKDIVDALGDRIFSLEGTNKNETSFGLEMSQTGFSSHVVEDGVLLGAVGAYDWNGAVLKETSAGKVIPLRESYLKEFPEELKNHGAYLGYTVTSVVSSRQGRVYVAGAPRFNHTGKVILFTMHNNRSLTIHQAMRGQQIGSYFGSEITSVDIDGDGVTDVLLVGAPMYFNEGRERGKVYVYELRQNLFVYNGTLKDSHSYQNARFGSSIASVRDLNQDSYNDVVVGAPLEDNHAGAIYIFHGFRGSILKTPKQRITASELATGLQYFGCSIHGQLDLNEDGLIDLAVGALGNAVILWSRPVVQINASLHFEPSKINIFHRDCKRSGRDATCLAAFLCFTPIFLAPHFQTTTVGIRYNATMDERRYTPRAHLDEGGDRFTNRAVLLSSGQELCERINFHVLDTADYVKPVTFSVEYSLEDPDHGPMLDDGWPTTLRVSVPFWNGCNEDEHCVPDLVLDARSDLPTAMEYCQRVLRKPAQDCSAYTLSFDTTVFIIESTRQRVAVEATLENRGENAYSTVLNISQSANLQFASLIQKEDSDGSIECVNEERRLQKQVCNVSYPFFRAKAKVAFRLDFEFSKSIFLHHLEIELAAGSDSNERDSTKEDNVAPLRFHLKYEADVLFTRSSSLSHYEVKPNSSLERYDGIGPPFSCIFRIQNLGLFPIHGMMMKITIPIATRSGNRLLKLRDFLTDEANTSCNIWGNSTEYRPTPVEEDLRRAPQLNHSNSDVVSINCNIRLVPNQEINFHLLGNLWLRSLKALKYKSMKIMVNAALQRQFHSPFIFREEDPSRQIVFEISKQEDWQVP
T2 sequence (P05556 21-728 limits assumed, chain 2 of 2): as the sequence (P05556 21-728 limits assumed, chain 2 of 2) above

| binding result | Binder |
| --- | --- |
| binds | B6 |
| binds | {glass slide-PEG linker}-TEWLRWFNS (reading uncertain) |
| binds | {glass slide-PEG}-AGLTEWLRWFNS (reading uncertain, Alanine at position 1 of AXI-I) |
| binds | {glass slide-PEG linker}-SGLTEWLRWFNA (reading uncertain, Alanine at position 12 of AXI-I) |
| binds | {glass slide-PEG}-SALTEWLRWFNS (reading uncertain, Alanine at position 2 of AXI-I) |
| binds | {glass slide-PEG}-SGLTAWLRWFNS (reading uncertain, Alanine at position 5 of AXI-I) |
| binds | B7 |
| binds | {glass slide-PEG linker}-SGLTEWARWFNS (reading uncertain, Alanine at position 7 of AXI-I) |
| binds | {glass slide-PEG linker}-SGLTEWLAWFNS (reading uncertain, Alanine at position 8 of AXI-I) |
| binds | {glass slide-PEG linker}-SGLTEWLRAFNS (reading uncertain, Alanine at position 9 of AXI-I) |
| binds | {glass slide-PEG linker}-SGLTEALRWFNS (reading uncertain, Alanine at position 6 of AXI-I) |
| binds | {glass slide-PEG}-SGLAEWLRWFNS (reading uncertain, Alanine at position 4 of AXI-I) |
| binds | {glass slide-PEG linker}-WLRWFNS (reading uncertain) |
| binds | {glass slide-PEG}-LRWFNS (reading uncertain) |
| no binding | B8 |
| no binding | B9 |
| binds | {glass slide-PEG}-GLTEWLRWFNS (reading uncertain) |
| binds | {glass slide-PEG linker}-SGLTEWLRWF (reading uncertain) |
| binds | {glass slide-PEG}-EWLRWFNS (reading uncertain) |
| binds | {glass slide-PEG linker}-SGLTEWLRW (reading uncertain) |
| binds | {glass slide-PEG}-LTEWLRWF (reading uncertain) |
| binds | {glass slide-PEG}-LTEWLRWFNS (reading uncertain) |
| binds | {glass slide-PEG linker}-SGLTEWLRWFN (reading uncertain) |
| no binding | B10 |
| binds | {glass slide-PEG}-GLTEWLRWFN (reading uncertain) |

Biological target: T1, α5β1 human recombinant protein
Assay: overlapping peptides on membrane incubated with 5 µg/ml α5β1; bound receptor transferred and detected with anti-alpha5 antibody
Protocol: Peptides were attached to their c-terminal site using stable linker. […] The peptide-displaying […] membrane was soaked in methanol for 1 minute and rinsed in Tris-buffered saline (TBS) and washed three times. Then, the membrane was blocked with 3% BSA in 0.05% TWEEN®-20 containing TBS (TBST) for 3 hours at room temperature. Then, the membrane was washed for 10 minutes with TB ST and incubated with 5 μg/ml α5β1 human recombinant protein (R&D systems) in 3% BSA in TB ST for 1 hour at room temperature and then overnight at 4° C. Subsequently, the membrane was washed three times with TB ST. Thereafter, the bound receptor to the membrane was transferred to the PVDF membrane. To achieve this, first, the PVDF membrane was soaked in methanol for 1 minute and then blocked with 5% skimmed fat milk for 2 hours. Then, the membrane was incubated with primary anti-alpha5 integrin antibody (Sigma-Aldrich) for overnight in 5% skimmed milk. The membrane was washed three times with TBST and then incubated with anti-rabbit-HRP secondary antibody (Dako), washed and developed with chemiluminescence detection kit.
The domains 9 and 10 of FN were chosen to design peptides, as these domains were reported to be responsible for binding to the α5β1 receptor, as shown with the docking experiments (Nagae et al, 2012 J. Cell Biol. 131-140). The interaction studies were performed against human recombinant integrin α5β1 receptor and the bound proteins were transferred to another membrane and ITGA5 was detected with antibodies. Many sequences appeared to bind to the α5β1 receptor from human and mouse domains, the strongest binding was obtained with 2 sequences from human FN-III domain 10 as follows.

| binding result | Binder |
| --- | --- |
| binds | TNLLVRYSPVKN-{stable linker-membrane} (reading uncertain) |
| binds | SIELTNLLVRYS-{stable linker-membrane} (reading uncertain) |
| binds | GDSPASSKPISI-{linker-membrane} (reading uncertain) |
| binds | TTVRYYRITYGE-{stable linker-membrane} (reading uncertain) |
